Results reported in publication doi:10.1101/2021.04.23.441069.

What was measured:
[1] = target: NyxA (purified, not held on the resin) (Brucella abortus 2308) (UniProt Q2YPD9); assay: […]
[2] = target: NyxB (untagged, His tag cleaved with TEV) (Brucella abortus 2308) (UniProt Q2YPZ9); assay: […]

“NyxA (purified, not held on the resin) (from UniProt Q2YPD9 1-129) (natural protein)” showed a stoichiometry N [1] of 2.

Substance “NyxB (untagged, His tag cleaved with TEV) (from UniProt Q2YPZ9 1-134) (natural protein)” has a stoichiometry N [2] of 2.
